Experiments:
[1] = molecular target: T1, Peptide 1 (human, cyno); assay: peptide microarray; Sp H; IgG 1 µg/ml
T1 peptide: QQQQQQQQPPPPPPP

[2] = molecular target: T2, Peptide 8 (human); assay: peptide microarray; Sp H; IgG 1 µg/ml
T2 peptide: QAQPLLPQPQPPPPP

[3] = molecular target: T3, Peptide 10 (human); assay: peptide microarray; Sp H; IgG 1 µg/ml
T3 peptide: QPLLPQPQPPPPPPP

[4] = molecular target: T4, Peptide 7 (human); assay: peptide microarray; Sp H; IgG 1 µg/ml
T4 peptide: PQAQPLLPQPQPPPP

[5] = molecular target: T5, Peptide 17 (human); assay: peptide microarray; Sp H; IgG 1 µg/ml
T5 peptide: QPPPPPPPPPPGPAV

[6] = molecular target: T6, Peptide 2 (human, cyno); assay: peptide microarray; Sp H; IgG 1 µg/ml
T6 peptide: QQQQQQQPPPPPPPP

[7] = molecular target: T7, Peptide 11 (human); assay: peptide microarray; Sp H; IgG 1 µg/ml
T7 peptide: PLLPQPQPPPPPPPP

[8] = molecular target: T8, Epitope 1 (human, cyno); assay: peptide microarray; Sp H; IgG 1 µg/ml
T8 peptide: QQQQPPPPPPPPPPP

[9] = molecular target: T9, Peptide 12 (human); assay: peptide microarray; Sp H; IgG 1 µg/ml
T9 peptide: LLPQPQPPPPPPPPP

[10] = molecular target: T10, Peptide 3 (human, cyno); assay: peptide microarray; Sp H; IgG 1 µg/ml
T10 peptide: QQQQQQPPPPPPPPP

[11] = molecular target: T11, Peptide 16 (human); assay: peptide microarray; Sp H; IgG 1 µg/ml
T11 peptide: PQPPPPPPPPPPGPA

[12] = molecular target: T1, Peptide 1; assay: peptide microarray; Sp H; IgG 10 µg/ml
[13] = molecular target: T2, Peptide 8; assay: peptide microarray; Sp H; IgG 10 µg/ml
[14] = molecular target: T3, Peptide 10; assay: peptide microarray; Sp H; IgG 10 µg/ml
[15] = molecular target: T4, Peptide 7; assay: peptide microarray; Sp H; IgG 10 µg/ml
[16] = molecular target: T5, Peptide 17; assay: peptide microarray; Sp H; IgG 10 µg/ml
[17] = molecular target: T6, Peptide 2; assay: peptide microarray; Sp H; IgG 10 µg/ml
[18] = molecular target: T7, Peptide 11; assay: peptide microarray; Sp H; IgG 10 µg/ml
[19] = molecular target: T8, Epitope 1; assay: peptide microarray; Sp H; IgG 10 µg/ml
[20] = molecular target: T12, Peptide 9 (human); assay: peptide microarray; Sp H; IgG 10 µg/ml
T12 peptide: AQPLLPQPQPPPPPP

[21] = molecular target: T13, Peptide 13 (human); assay: peptide microarray; Sp H; IgG 10 µg/ml
T13 peptide: LPQPQPPPPPPPPPP

[22] = molecular target: T9, Peptide 12; assay: peptide microarray; Sp H; IgG 10 µg/ml
[23] = molecular target: T14, Peptide 4 (human, cyno); assay: peptide microarray; Sp H; IgG 10 µg/ml
T14 peptide: QQQQQPPPPPPPPPP

[24] = molecular target: T10, Peptide 3; assay: peptide microarray; Sp H; IgG 10 µg/ml
[25] = molecular target: T11, Peptide 16; assay: peptide microarray; Sp H; IgG 10 µg/ml
[26] = molecular target: T15, Peptide 21 (cyno); assay: peptide microarray; Sp C2; IgG 10 µg/ml
T15 peptide: AQPMLPQPQPPPPPP

[27] = molecular target: T1, Peptide 1; assay: peptide microarray; Sp C2; IgG 10 µg/ml
[28] = molecular target: T16, Peptide 25 (cyno); assay: peptide microarray; Sp C2; IgG 10 µg/ml
T16 peptide: QQPPPPPPPPPPPPQ

[29] = molecular target: T17, Peptide 29 (cyno); assay: peptide microarray; Sp C2; IgG 10 µg/ml
T17 peptide: PMLPQPQPPPPPPPP

[30] = molecular target: T18, Peptide 24 (cyno); assay: peptide microarray; Sp C2; IgG 10 µg/ml
T18 peptide: QQQQQQQQQPPPPPP

[31] = molecular target: T19, Peptide 28 (cyno); assay: peptide microarray; Sp C2; IgG 10 µg/ml
T19 peptide: QPMLPQPQPPPPPPP

[32] = molecular target: T6, Peptide 2; assay: peptide microarray; Sp C2; IgG 10 µg/ml
[33] = molecular target: T8, Epitope 1; assay: peptide microarray; Sp C2; IgG 10 µg/ml
[34] = molecular target: T20, Peptide 18 (cyno); assay: peptide microarray; Sp C2; IgG 10 µg/ml
T20 peptide: QQQPPPPPPPPPPPP

[35] = molecular target: T21, Peptide 26 (cyno); assay: peptide microarray; Sp C2; IgG 10 µg/ml
T21 construct: the array is said to hold 15-mers
T21 peptide: QPPPPPPPPPPPPQL

[36] = molecular target: T22, Peptide 31 (cyno); assay: peptide microarray; Sp C2; IgG 10 µg/ml
T22 peptide: LPQPQPPPPPPPPPP

[37] = molecular target: T14, Peptide 4; assay: peptide microarray; Sp C2; IgG 10 µg/ml
[38] = molecular target: T10, Peptide 3; assay: peptide microarray; Sp C2; IgG 10 µg/ml
[39] = molecular target: T23, Peptide 30 (cyno); assay: peptide microarray; Sp C2; IgG 10 µg/ml
T23 peptide: MLPQPQPPPPPPPPP

[40] = molecular target: T24, Peptide 22 (cyno); assay: peptide microarray; Sp C1; IgG 10 µg/ml
T24 peptide: QPMLPQPQPPPPPPR

[41] = molecular target: T20, Peptide 18; assay: peptide microarray; Sp C1; IgG 10 µg/ml

B1: ATL_0005335 (antibody, V domains shown)
VH: EVQLVESGGGLVKPGGSLRLSCAASGFTFNKAWMNWVRQAPGKGLEWVGRIKSGIDGGTTDYAAPVQGRFTISRDDSKNTVYLQMNSLNTEDTAVYYCIPPPYYYYYGLDVWGQGTTVTVSS
VL: QSALTQPASVSGSPGQSITISCTGTSSDIGSYNLVSWYQQHPGNAPKPLIYEGSKRPSGVSARFSGSKSGNTASLTISGLQPEDEADYYCSSYAGFNTLVFGGGTKVTVL
notes: human IgG1; also called ATL_5335
[1]
  corrected fluorescence intensity: 0
[2]
  corrected fluorescence intensity: 434
[3]
  corrected fluorescence intensity: 845
[4]
  corrected fluorescence intensity: 0
[5]
  corrected fluorescence intensity: 0
[6]
  corrected fluorescence intensity: 417
[7]
  corrected fluorescence intensity: 936
[8]
  corrected fluorescence intensity: 293
[9]
  corrected fluorescence intensity: 932
[10]
  corrected fluorescence intensity: 626
[11]
  corrected fluorescence intensity: 77.5
[12]
  corrected fluorescence intensity: 729
[13]
  corrected fluorescence intensity: 1510
[14]
  corrected fluorescence intensity: 5410
[15]
  corrected fluorescence intensity: 326
[16]
  corrected fluorescence intensity: 166
[17]
  corrected fluorescence intensity: 2100
[18]
  corrected fluorescence intensity: 6680
[19]
  corrected fluorescence intensity: 3840
[20]
  corrected fluorescence intensity: 3470
[21]
  corrected fluorescence intensity: 9010
[22]
  corrected fluorescence intensity: 8520
[23]
  corrected fluorescence intensity: 3680
[24]
  corrected fluorescence intensity: 3190
[25]
  corrected fluorescence intensity: 415
[26]
  corrected fluorescence intensity: 448
[27]
  corrected fluorescence intensity: 7010
[28]
  corrected fluorescence intensity: 3300
[29]
  corrected fluorescence intensity: 4680
[30]
  corrected fluorescence intensity: 3260
[31]
  corrected fluorescence intensity: 2670
[32]
  corrected fluorescence intensity: 8870
[33]
  corrected fluorescence intensity: 9590
[34]
  corrected fluorescence intensity: 8370
[35]
  corrected fluorescence intensity: 1910
[36]
  corrected fluorescence intensity: 7740
[37]
  corrected fluorescence intensity: 10000
[38]
  corrected fluorescence intensity: 9510
[39]
  corrected fluorescence intensity: 6020
[40]
  corrected fluorescence intensity: 374
[41]
  corrected fluorescence intensity: 4510

B2: ATL_0005331 (antibody, V domains shown)
VH: B1 VH
VL: QSALTQPRSVSGSPGQSITISCTGTSSDVGSYNLVSWFQQHPGKAPKLIIYEVNKRPSGVPDRFSGSKSGNTASLTVSGLQAEDEADYYCGSYAGTNNVFGTGTKLTVL
notes: human IgG1; also called ATL_5331; Human IgG1 ATL_0005331
[1]
  corrected fluorescence intensity: 131
[2]
  corrected fluorescence intensity: 260
[3]
  corrected fluorescence intensity: 274
[4]
  corrected fluorescence intensity: 0
[5]
  corrected fluorescence intensity: 85.5
[6]
  corrected fluorescence intensity: 197
[7]
  corrected fluorescence intensity: 280
[8]
  corrected fluorescence intensity: 291
[9]
  corrected fluorescence intensity: 374
[10]
  corrected fluorescence intensity: 276
[11]
  corrected fluorescence intensity: 90.2
[12]
  corrected fluorescence intensity: 0
[13]
  corrected fluorescence intensity: 1140
[14]
  corrected fluorescence intensity: 2250
[15]
  corrected fluorescence intensity: 119
[16]
  corrected fluorescence intensity: 16.2
[17]
  corrected fluorescence intensity: 1340
[18]
  corrected fluorescence intensity: 2950
[19]
  corrected fluorescence intensity: 2950
[20]
  corrected fluorescence intensity: 1260
[21]
  corrected fluorescence intensity: 3960
[22]
  corrected fluorescence intensity: 3490
[23]
  corrected fluorescence intensity: 2620
[24]
  corrected fluorescence intensity: 1670
[25]
  corrected fluorescence intensity: 145
[26]
  corrected fluorescence intensity: 888
[27]
  corrected fluorescence intensity: 2700
[28]
  corrected fluorescence intensity: 947
[29]
  corrected fluorescence intensity: 2170
[30]
  corrected fluorescence intensity: 994
[31]
  corrected fluorescence intensity: 1700
[32]
  corrected fluorescence intensity: 4070
[33]
  corrected fluorescence intensity: 4580
[34]
  corrected fluorescence intensity: 4500
[35]
  corrected fluorescence intensity: 1040
[36]
  corrected fluorescence intensity: 5480
[37]
  corrected fluorescence intensity: 4870
[38]
  corrected fluorescence intensity: 4830
[39]
  corrected fluorescence intensity: 4250
[40]
  corrected fluorescence intensity: 112
[41]
  corrected fluorescence intensity: 3100

Source: patent publication US20260209320A1 (ALCHEMAB THERAPEUTICS, published 2026)
